Data from article PMC10011135, “Molecular identification and physiological functional analysis of NtNRT1.1B that mediated nitrate long-distance transport and improved plant growth when overexpressed in tobacco” (Frontiers in Plant Science, 2023).

Substrate: O=[N+]([O-])O
Assay: cells, lysate or membranes
Parameters: species or system Nicotiana tabacum
Settings: whole roots of 2-day N-starved tobacco plants (wild-type K326 background subtracted); 5–500 μM nitrate; labelled compound (15N)

B1: NtNRT1.1B (Nicotiana tabacum) (protein)
chain: MALPETQQDSKALPDAWDYKGRPALRSSSGGWASGAMILGVEAVERLTTLGIAVNLVTYLTGTMHLGNATAANNVTNFLGTSFMLTLFGGFVADTFLGRYLTIGIFATVQAMGVTILTISTIIPSLRPPKCEQVGSSSCIPANSKQLMVLYIALYMTALGTGGLKSSVSGFGTDQFDDADKKEKGQMIKFFDWFFFFINVGSLGAVTVLVYIQDNLGREWGYGICACAIVIGLVVFLSGTRKYRFKKLVGSPLTQIASVIVAAWKKRHLELLSDSSLLFEIDDIFGEGNKKNKQKLPHSKEYRFLDKAAIKEDHDLESNGTNVVINKWKLATLTDVEEVKLLIRMLPTWATTIMFWTVYAQMTTFSVSQATTMDRHIGTFEIPPASLTVFFVGSILLTVIFYDRVIVPICRRFMNKPHGLTPLQRIFTGLVLSILAMIAAALTEVKRLKVAHLHGLTNDANATIPLSVFWLVPQFLLVGAGEAFTYIGQLDFFLRECPKGMKTMSTGLFLSTLALGFFFSSILVTIVHVVTGTTNPWLADNLNQGRLYDFYWLLAILSVLNLMFFLYFSRKYVYKEKRLAEMGIELEDDGPVCH
notes: full-length untagged ORF (1,785 bp, 594 residues) under CaMV 35S promoter, overexpressed in tobacco K326 (line L1); formerly named NtNRT1.2 (Liu et al., 2018)
Km: 29.05 ± 3.34 µM
